From the nanobody polyreactivity screen of Harvey et al. (2022)

Assay: yeast display, Sf9 membrane polyspecificity reagent, FACS + sequencing; frameworks hold sequencing errors
Method in brief: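 Nanobodies from a synthetic yeast display library (Saccharomyces cerevisiae BJ5465), induced 36–48 hours with galactose, were stained 1 hour at 4 °C with 10% biotinylated, detergent-solubilized Sf9 membrane reagent, enriched on streptavidin microbeads, then FACS-sorted. Anti-HA (expression) and streptavidin (reagent binding) fluorescence set low and high (top ~1%) gates. Polyreactivity labels come from the gate of origin. Genes were colony-PCR amplified, MiSeq 2 × 250 sequenced and filtered by CDR length.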

Sequence	polyreactivity (PSR sort gate)
QVQLVESGGVLVQAGGSLRLSCAASGFTFGPYAMGWYRPAPGKERELVATIRSGDSTNYADSVKGRFTISRDNAKNTVYLQMNSLKPEDTAVYYCARDARASARRKRYDYGGQGTQVTVSS	low polyreactivity
QVHLVETGGGLVHAGGSLRLSCAASGFIFGVNAMGWYRQAPGKERELDAAITRNGGSTYYADSVKGRFTISRDYAKNTVYLQMNSLKPEDTAVYYCAKYVRRAPSSIDVDYWGQGTQVTVSS	high polyreactivity
QVQLVESGGVLVQAGGSLRLSCAASGITFGDNAMGWYRQAPGKERELVAAITTSVDSTYYADSVKGRFTISRDNAKNTVYLQMNSLKPEDTAVYYCAVAFVQFTQYDYWGQGTQVTVSS	low polyreactivity
QVQLVESGGGLVQAGGSLRLSCADSGSTFWFYTMGWYRQAPGKERELVATITSGGSTNYADSVKGRFTISRDNAKNTVYLQMNSLKPEDTAVYYCAASSVLTNHDYWGQGTQVTVSS	low polyreactivity
QVQLVESGGGLVQAGGSLRLSCAASGSTFRRNVMGWYRQAPGKERELVAAISRSGGRTYYADSVKGRFTISRDNAKNTVYLQMNSLKPEDTAVYYCNATRAGENPDGGDEYWGQGTQVTVSS	high polyreactivity
QHQIVESGGGLVQAGGSLRLSCAASGSTIYRYAMGWYRQAPGKERELVAAISSSGGSTYYADSVKGRFTISRDNAKNTVYLQMNSLKPEDTAVYYCNAADRVRRFDYWGQGTQVTVSS	low polyreactivity
QVQLVESGGGLVQAGGSLRLSCAASGSIFRSYAMGWYRQAPGKERELVAAITNGGSTYYADSVKGRFTISRDNAKNTVYLQINSLKPEDTAVYYCAAARYTYWFYLVKKTGYYWGQGTQVTVSS	high polyreactivity
QVQLVESGGGLVQAGGSLRLSCAASGFIFGYNAMGWYRQAPGKERELVASITINDGSTYYADSVKGRFTISRDNAKNTVYLQMNCLKPEDTAVYYCAAGGWYSLDILPYRYDYWGQGTQVTVSS	low polyreactivity
QVQLVESGGGLVQAGGSLRLSCAASGITFYPYAMGWYRQAPGKERELVAAITGSGGRTYYADSVKGRFTISRDNAKNTVYLQMNSLKPEDTAVYYCAKVARYPDMGYWGQGTQVTVSS	high polyreactivity
QVQLVESGGGLVQAGGSLRLSCAASGFIFSGNAMGWYRQAPGKERELVAAITRGGITYYADSVKGRFTISRDNAKNTVYLQMNSLKPEDTAVYYCNALGFGSNYDYWGQGTQVTVSS	high polyreactivity
QVQLVESGGDLVQAGGSLRLSCAASGGIFQKYVMGWYRQAPGKERELVARITSVGSTYYADSVKGRFTISRDNAKNTVYLQMNSLKPVDTAVYYCNAELYRRSQGYRFTAFDYWGQGTQVTVSS	low polyreactivity
QVQLVESGGGLVQAGGSLRLSCAASGFTLFGYAMGWYRPAPGKERELVAAITSGDGRTYYADSVKGRFTISRDNAKNTVYLQMNSLKPEDTAVYYCAATRYSSYYYVRHDHWGQGTQVTVSS	low polyreactivity
QVHLVESGGGLVQAGGSLRLSCAASGSTFAPNAMGWYRQAPGKERELVASIRRGGSTHYADSVKGRFTISRDNAKNSVYLQMNSLKPEDTAVYYCATDQDPCSWYRYDYWGQGTQVTVSS	low polyreactivity
QVQLVESGGGLVQAGGSLRLSCAASGSTINQYPMGWYRQAPGKERDLVAAITRRGGSTYYADSVKGRCTISSDNAKNTVYLQLNSLKPEDTAVYYCAAAYPYTTVSYDYWGQGTQVTVSS	high polyreactivity
QVQLVESGGGLVQAGGSLRLSCAASGSTFLYYEMGWYRQAPGKDRELVAAISASGGSTYYADSVKGRFTISRDNAKSTVYLQMNSLKPEDTAVYYCAAVYHWVRPILYYWGQGTQVTVSS	high polyreactivity
QVHLVETGGGLVQAGGSLRLSCAASGRTFYVNAMGWYRQAPWKERELVARITSGGSTYYADSVKGRFTISRDNAKNTVYLQMNSLKPEDTAVYYCAKKYIGYQVWIHSTRRYDYWGHGTQVTVSS	low polyreactivity

Sequence	polyreactivity (PSR sort gate)
QVQLVESGGGLVQAGGSLRLSCAASGFTFYYNAMGWYRQAPGKERELVAAISASGGRTYYADSVKGRFTISRDNAKNTVYLQINSLKPEDTAVYYCAYRVYPHYGWYDYWGQGTQVTVSS	high polyreactivity
QDQLVESGGGLVQAGGSLRLSCAASGRNFELYAMGWYRPAPRKERELVATISGSGGSTYYADSVKGRFTISRDNAKNTVYLQMNSLKPEDTAVFYCAKNAYGYYYSRSDDWGQGTQVTVSS	low polyreactivity
QVQLVESVGGFVQAGGSLRLSSAASGFIFRSYAMGSYRQAPGKERELVAVISRRGVNTHYADSVKGRFTISRDYAKYTVYLQMNSLKPEDTAVYDCAKGLTALGDYWGQGSQVTVSS	high polyreactivity
QVQLVDSGGGLVQAGGSLRLSCAASGSIFVPYAMGWYRQAPRKERELVAAISWSGGSTNYADSVKGRFTISRDNAKNTVYLQMNSLKPEDTAVYYCNARWSSWYIHSHYYYWGQGTQVTVSS	high polyreactivity
QVQLVESGGGLVQAGGSLRLSCAASGITFLFYARGWYRKAPGKERELVAAISSGDNTYYADSVKGRFTISRDNGKNTVYLQMKSLKPDDTAVYYCAAEKYGYDYWGQGTQVTVSS	low polyreactivity
QVQLVESGGGLVQAGGSLRLSCAASGRIFVGNTMGWYRQAPGKERELVAAITRSGGSTYYADSAKGRFTISRDNAKNTVYLQMNSLKPEDTAVYYCAARRRGDYWGQGTQVTVSS	high polyreactivity
QVQLVESGGGLVQAGGSLRLSCAASGRTFYIYTMGWYRQAPGKERELVAAISSSGDSTYYADSVKGRFTISRDNAKNTVFLQMNPLKPEDTAVYYCAAYPTYPDEYWGQGTQVTVSS	low polyreactivity
QVQLVESGGGLVQAGGSRRLSCAASGNTFTWYTMGWYRQAPAKERELVAVITSDGSTYYADSVKGRFTISRDNAKNTVYLQMNSLKPEDTAVYYCNALSADWYPEEDYWGQGTQVTVSS	low polyreactivity
QVQLVESGGGLFQAGGSLRLSCAASGRIFYYNAMGWYRQAPGKEREFVAAITYRGGSTYYADSVKGRFTISRDNAKITVYLQMNSLKPEDTAVYYCAARSAWQVAPRGRTVAFDYWGQGTQVTVSS	high polyreactivity
QVQLVESGGGLVQAGGTLPLSCAASGYTISRNAKGWYRQAPGKARELDAAISRGGRTNYADSVKGRFTISRDNAKNSVYLHLNSLKPEDTAVYYCAANSTTGLRSPRGAGGHDYWGQGTQVTVSS	high polyreactivity
QGQLVESGGGLVQAGGSLRLSCAASGSISLYAMGWYRQAPGKERELVAAITKSGGSTYYADSVKGRFTISRDNAKNTVYLQMHSLKPEDTAVYYCNRGGGERKYNYWGQGTQVTVSS	high polyreactivity
QVQLVESGGGLVKAGVSLRLICAASGSTFWYNDRGSYRQSPGKERELVASNSWSGGDTYYADSVKGRLTISRDNAQNTVYFQMNRLKPEDTAVYNCAKGNNWISRLMDYWGQGTQVTVSS	low polyreactivity
QVQLVESGGGLVQAGGSLRLSCAASGRTFVKNAMGWYRLAPGKERELVAAISRRGGSTYYADSVKGRFTISRDNAKNTVYLQMNSRKPEDTAVYYCAAPYTRPTTGYDYWGQGTQVTVSS	high polyreactivity
QVQLVESGGGLVQAGGSLRLSCAASGFTITKYAMGWYRQAPGKERELVAAISSSGYSTYYADSVKGRFTISRDNAKNTVYFQMNSLKPEDTAVYYCAARGYYSSGVDYCGQGTQVTVSS	high polyreactivity
QVQLVESGGGLVQAGGSLRLSCAASGITFERYVMGWYIQAPGKERELVASISRSGSTFYADSVKGRFTISRDNAKNTVYLQMNSLKPEDTAVYYCNADRFWFHWVYSRYHYDYWGQGTQVTVSS	high polyreactivity
QVQLVESGGGLVQAGGSLRLSCAASGRTFAIYAMGWYRQAPGKERELVAAISGSGGSTYYADSVKGRFTISRDNAKNTVYLQMNSLKPEDTAVYYCAKRVRGHRYDYWGQGTQVTVSS	high polyreactivity
